# Target: T1, CD3ε homodimer protein (human, UniProt P07766 23-126, limits assumed, sulfo-tag or biotin label in the ECL assays; amine-coupled to the chip in SPR)
# T1 construct: also called human CD3ε homodimer protein; CD3 (CD3ε)
# Experiment: SPR Biacore T200; CD3ε homodimer on CM4 chip;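 further: Single-residue variant antibodies injected as analyte over CD3ε homodimer immobilized by amine coupling, run at 25 °C in HBS-EP+ buffer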
# T1 sequence (P07766 23-126 limits assumed): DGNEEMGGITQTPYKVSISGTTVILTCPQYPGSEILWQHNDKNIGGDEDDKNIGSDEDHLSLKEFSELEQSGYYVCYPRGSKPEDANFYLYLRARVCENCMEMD
row,ratio of amounts bound Z=Y/X (altered form / CE115HA000),Binder
1,0.7,"CE115HA000 N53A one-arm antibody (antibody, human IgG1, kappa, L234A L235A, N297A, name in Kabat numbering) heavy: QVQLVESGGGVVQPGRSLRLSCAASGFTFSNAWMHWVRQAPGKGLEWVAQIKAKSANYATYYAESVKGRFTISRDDSKNSLYLQMNSLKTEDTAVYYCRYVHYGAYYGVDAWGQGTTVTVSSASTKGPSVFPLAPSSKSTSGGTAALGCLVKDYFPEPVTVSWNSGALTSGVHTFPAVLQSSGLYSLSSVVTVPSSSLGTQTYICNVNHKPSNTKVDKKVEPKSCDKTHTCPPCPAPEAAGGPSVFLFPPKPKDTLMISRTPEVTCVVVDVSHEDPEVKFNWYVDGVEVHNAKTKPREEQYASTYRVVSVLTVLHQDWLNGKEYKCKVSNKALPAPIEKTISKAKGQPREPQVYTLPPSRCELTKNQVSLSCAVKGFYPSDIAVEWESNGQPENNYKTTPPVLDSDGSFFLVSKLTVDKSRWQQGNVFSCSVMHEALHNHYTQKSLSLSPDYKDDDDK EPKSSDKTHTCPPCPAPELLGGPSVFLFPPKPKDTLMISRTPEVTCVVVDVSHEDPEVKFNWYVDGVEVHNAKTKPREEQYNSTYRVVSVLTVLHQDWLNGKEYKCKVSNKALPAPIEKTISKAKGQPREPQVCTLPPSRDELTKNQVSLWCLVKGFYPSDIAVEWESNGQPENNYKTTPPVLDSDGSFFLYSKLTVDKSRWQQGNVFSCSVMHEALHNRYTQKSLSLSP light: DIVMTQSPLSLPVTPGEPASISCRSSQSLVHSNRNTYLHWYQQKPGQAPRLLIYKVSNRFSGVPDRFSGSGSGTDFTLKISRVEAEDVGVYYCGQGTQVPYTFGQGTKLEIKRTVAAPSVFIFPPSDEQLKSGTASVVCLLNNFYPREAKVQWKVDNALQSGNSQESVTEQDSKDSTYSLSSTLTLSKADYEKHKVYACEVTHQGLSSPVTKSFNRGEC"
2,0.39,"CE115HA000 N53D one-arm antibody (antibody, human IgG1, kappa, L234A L235A, N297A, name in Kabat numbering) heavy: QVQLVESGGGVVQPGRSLRLSCAASGFTFSNAWMHWVRQAPGKGLEWVAQIKAKSDNYATYYAESVKGRFTISRDDSKNSLYLQMNSLKTEDTAVYYCRYVHYGAYYGVDAWGQGTTVTVSSASTKGPSVFPLAPSSKSTSGGTAALGCLVKDYFPEPVTVSWNSGALTSGVHTFPAVLQSSGLYSLSSVVTVPSSSLGTQTYICNVNHKPSNTKVDKKVEPKSCDKTHTCPPCPAPEAAGGPSVFLFPPKPKDTLMISRTPEVTCVVVDVSHEDPEVKFNWYVDGVEVHNAKTKPREEQYASTYRVVSVLTVLHQDWLNGKEYKCKVSNKALPAPIEKTISKAKGQPREPQVYTLPPSRCELTKNQVSLSCAVKGFYPSDIAVEWESNGQPENNYKTTPPVLDSDGSFFLVSKLTVDKSRWQQGNVFSCSVMHEALHNHYTQKSLSLSPDYKDDDDK EPKSSDKTHTCPPCPAPELLGGPSVFLFPPKPKDTLMISRTPEVTCVVVDVSHEDPEVKFNWYVDGVEVHNAKTKPREEQYNSTYRVVSVLTVLHQDWLNGKEYKCKVSNKALPAPIEKTISKAKGQPREPQVCTLPPSRDELTKNQVSLWCLVKGFYPSDIAVEWESNGQPENNYKTTPPVLDSDGSFFLYSKLTVDKSRWQQGNVFSCSVMHEALHNRYTQKSLSLSP light: DIVMTQSPLSLPVTPGEPASISCRSSQSLVHSNRNTYLHWYQQKPGQAPRLLIYKVSNRFSGVPDRFSGSGSGTDFTLKISRVEAEDVGVYYCGQGTQVPYTFGQGTKLEIKRTVAAPSVFIFPPSDEQLKSGTASVVCLLNNFYPREAKVQWKVDNALQSGNSQESVTEQDSKDSTYSLSSTLTLSKADYEKHKVYACEVTHQGLSSPVTKSFNRGEC"

# Reference: patent publication US20260049138A1 (Chugai, published 2026)
